From article PMC8879737
Values joined by “and” are separate entries in the source; they are usually repeats but may differ in a detail not shown here. Identical values can stand only once. Like-named read-outs stand apart in the source and are kept apart here.

Legend:
[1] = target: guinea pig whole molecule IgG (guinea pig); test: SPR; Biacore 2000; human IgG Fc and human, rabbit, mouse, guinea pig whole IgG amine coupled to CM5 chips (854, 1348, 1094, 857, 1143 RU); gE monomers and gE/gI heterodimers at 750 μg/mL (Bac gE-1 t411 490 μg/mL) flowed at 30 μL/min in 0.01 M HEPES pH 7.4, 0.15 M NaCl, 0.005% P20; one concentration, RU at the end of association and of dissociation
[2] = target: human whole molecule IgG (human); test: as above
[3] = target: rabbit whole molecule IgG (rabbit); test: as above
[4] = target: ChromePure human IgG Fc (human); test: as above
[5] = target: ChromePure human IgG Fc (human); test: as above; remark: listed apart in the source
[6] = target: human whole molecule IgG (human); test: as above; remark: listed apart in the source
[7] = target: rabbit whole molecule IgG (rabbit); test: as above; remark: listed apart in the source
[8] = target: gE-2 t417 (HSV-2 strain 333); test: SEC-MALS; Superdex 200, 10 mM HEPES, 150 mM NaCl, pH 7.5, 20 °C, 0.5 mL/min; 200 µg injected; conjugate analysis (protein and carbohydrate)

Substance | RU post association [1] [RU] | RU post dissociation [1] [RU] | RU post association [2] [RU] | RU post dissociation [2] [RU] | RU post association [3] [RU] | RU post dissociation [3] [RU] | RU post association [4] [RU] | RU post dissociation [4] [RU] | RU post association [5] [RU] | RU post association [6] | RU post association [7] | stoichiometry N [8]
gE-1 t419 (domain or fragment) | 27 | -2.4 | 127 | -1.9 | 188 | 0.6 |  |  |  |  |  | 
gE-1 t419/gI-1 t269 (complex) | 19 | 0.8 | 232 | 189 | 195 | 170 | 216 | 137 |  |  |  | 
Bac gE-1 t411 (domain or fragment) | 32 | 3.3 | 147 | 32 | 231 | 75 | 77 |  | 80 | 157 RU and 145 RU | 228 RU and 221 RU | 
gI-2 t262 (strain 333) (domain or fragment) |  |  |  |  |  |  |  |  |  |  |  | 1
gE-2 t414/gI-2 t262 (complex) |  |  | 79 | -0.4 | 75 | -0.6 | 53 | 0.6 |  |  |  | 
gE-2 t417/gI-2 t262 (complex) |  |  | 52 | -2.1 | 46 | -1.5 |  |  |  | 53 RU and 133 RU |  | 
gE-2 t24-405/gI-2 t262 (complex) |  |  | 136 | 12 | 142 | 25 | 95 | 6.6 |  |  |  | 
gE-2 t405/gI-2 t262 (complex) |  |  | 142 | 14 | 165 | 34 | 100 | 7.7 |  |  |  | 
